Conditions in all cases: scale: mg Gammanorm/ml chromatography matrix(gel)
The target of experiment [1] is GAMMANORM 165 mg/ml (Octapharma no. 00 86 64), human normal immunoglobulin (human). The experiment can be described thus: column dynamic binding capacity at 10% breakthrough, after 20 h accumulated in 0.5 M NaOH.
For experiment [2] the target is unchanged. In words: column dynamic binding capacity at 10% breakthrough, after 5 h accumulated in 0.5 M NaOH.
Experiment [3] shares this target. In words: column dynamic binding capacity at 10% breakthrough, after 3 h accumulated in 0.5 M NaOH.
The target is the same in experiment [4]. In words: column dynamic binding capacity at 10% breakthrough, before NaOH incubation.
Experiment [5] shares this target. In words: column dynamic binding capacity at 10% breakthrough, after 15 h accumulated in 0.5 M NaOH.
For experiment [6] the target is unchanged. The experiment can be described thus: column dynamic binding capacity at 10% breakthrough, after 10 h accumulated in 0.5 M NaOH.
For experiment [7] the target is unchanged. In words: column dynamic binding capacity at 10% breakthrough, after 1 h accumulated in 0.5 M NaOH.

The values that follow come from patent US20190308168A1.

On to “MABSELECT SURE ligand (four domains originating from the domain B analogue Z, stabilized against high pH by protein engineering), coupled to agarose particles (designed binder)”, for which the Capacity after 20 h in experiment [1] worked out at 25.9. In addition, the Capacity after 5 h in experiment [2] worked out at 28.2. In addition, the Capacity after 3 h in experiment [3] came out at 28.4. Moreover, in experiment [4], the Capacity (Start Capacity 1) worked out at 28.4 and the Capacity (Start Capacity 2) came to 28.1. Moreover, in experiment [5], the Capacity after 15 h is 27. In experiment [6], this sequence returned a Capacity after 10 h of 27.9. Moreover, the Capacity after 1 h in experiment [7] was 29.3.
On to “MABSELECT ligand (recombinant Protein A consisting of five homologous domains E, D, A, B, C), coupled to agarose particles (from UniProt P38507 37-327)”, for which the Capacity after 20 h in experiment [1] came to 10.1. The sequence further registered a Capacity after 5 h in experiment [2] of 20.3. This sequence also yielded a Capacity after 3 h in experiment [3] of 23.1. In experiment [4], this sequence displayed a Capacity (Start Capacity 1) of 29 and a Capacity (Start Capacity 2) of 29. This sequence also came in with a Capacity after 15 h in experiment [5] of 12.5. In addition, the Capacity after 10 h in experiment [6] was found to be 15.8. The same sequence yielded a Capacity after 1 h in experiment [7] of 27.
